# Source: patent publication US20190065668A1 (published 2019)
# Square brackets hold non-standard residues; d marks the D form. * marks the point of attachment. Sta = CC(C)C[C@H](N)[C@@H](O)CC(=O)O; NHPhenethyl = c1ccc(CCN*)cc1; Cbz = O=C(OCc1ccccc1)*
# B1: WEHI-842, Cbz-Cav(NH2)-Val-Sta-NH(CH2)2Ph.TFA (peptide)
# peptide: Cbz-X-Val-[Sta]-NHPhenethyl
# modifications: not fully specified (residue 1); printed as Cbz-Cav(NH2)-Val-Sta-NH(CH2)2Ph; also: TFA salt
# How the values were obtained:
# [1] = molecular target: recombinant P. falciparum plasmepsin V (residues N80-R528) (Plasmodium falciparum, UniProt Q8I6Z5 80-528); assay: cell-based or functional assay
# Chain of recombinant P. falciparum plasmepsin V (residues N80-R528) (Q8I6Z5 80-528): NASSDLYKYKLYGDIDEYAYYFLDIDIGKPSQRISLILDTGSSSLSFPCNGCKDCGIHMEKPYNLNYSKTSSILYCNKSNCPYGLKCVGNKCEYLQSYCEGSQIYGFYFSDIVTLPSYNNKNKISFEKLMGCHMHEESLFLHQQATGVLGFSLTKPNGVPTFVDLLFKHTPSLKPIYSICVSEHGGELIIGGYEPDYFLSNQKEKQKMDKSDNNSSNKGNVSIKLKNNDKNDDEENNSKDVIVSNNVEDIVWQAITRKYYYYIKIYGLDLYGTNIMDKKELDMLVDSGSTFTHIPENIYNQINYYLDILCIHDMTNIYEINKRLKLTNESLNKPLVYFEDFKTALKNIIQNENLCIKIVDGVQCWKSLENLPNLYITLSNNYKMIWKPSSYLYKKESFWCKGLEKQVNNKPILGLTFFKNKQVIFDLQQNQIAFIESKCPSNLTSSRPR
# [2] = molecular target: plasmepsin V in P. falciparum parasites (endogenous enzyme in trophozoites expressing PfEMP3-GFP) (Plasmodium falciparum, UniProt Q8I6Z5 1-590); assay: cell-based or functional assay
# Chain of plasmepsin V in P. falciparum parasites (endogenous enzyme in trophozoites expressing PfEMP3-GFP) (Q8I6Z5 whole entry): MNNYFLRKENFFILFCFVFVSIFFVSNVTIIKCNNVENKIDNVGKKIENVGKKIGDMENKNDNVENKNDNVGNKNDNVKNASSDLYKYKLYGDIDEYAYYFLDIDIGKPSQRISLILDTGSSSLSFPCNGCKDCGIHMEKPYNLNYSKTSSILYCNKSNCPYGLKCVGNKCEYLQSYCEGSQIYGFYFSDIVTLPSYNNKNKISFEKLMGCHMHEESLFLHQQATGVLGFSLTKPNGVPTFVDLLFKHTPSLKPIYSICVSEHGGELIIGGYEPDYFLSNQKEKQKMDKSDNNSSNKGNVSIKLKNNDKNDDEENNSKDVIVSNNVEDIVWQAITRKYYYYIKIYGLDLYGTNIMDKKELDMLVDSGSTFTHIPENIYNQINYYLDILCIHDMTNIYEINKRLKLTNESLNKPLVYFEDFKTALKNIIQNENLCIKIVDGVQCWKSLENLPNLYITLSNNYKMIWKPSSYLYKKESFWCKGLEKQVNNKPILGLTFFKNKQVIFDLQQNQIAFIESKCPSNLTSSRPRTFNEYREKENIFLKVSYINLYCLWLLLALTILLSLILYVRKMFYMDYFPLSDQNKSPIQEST
binder,measurement,setting,value
B1,"IC50, inhibition of cleavage of the fluorogenic KAHRP PEXEL peptide",[1],0.79 nM
same,"inhibition of PEXEL processing of PfEMP3-GFP in parasites, immunoblot, fold against WEHI-916",[2],10 fold
same,"inhibition of PfEMP3-GFP PEXEL cleavage in parasites, radiolabelling and densitometry, fold against WEHI-916",[2],10 fold
